From patent CN113563467A (SHANGHAI PUMING BIOLOGICAL TECH CO LTD, dated 2021)

How the values were obtained:
[1] = target: T1, 人C5蛋白 in 人血清补体 (Normal Human Serum Complement, Quidel, A112) (human, UniProt P01031 19-1676); experiment: cell-based or functional assay
[2] = target: T1, 人C5蛋白 in 人血清补体 (Normal Human Serum …); experiment: cell-based or functional assay; remark: listed apart in the source

T1 sequence (P01031 19-1676 limits assumed): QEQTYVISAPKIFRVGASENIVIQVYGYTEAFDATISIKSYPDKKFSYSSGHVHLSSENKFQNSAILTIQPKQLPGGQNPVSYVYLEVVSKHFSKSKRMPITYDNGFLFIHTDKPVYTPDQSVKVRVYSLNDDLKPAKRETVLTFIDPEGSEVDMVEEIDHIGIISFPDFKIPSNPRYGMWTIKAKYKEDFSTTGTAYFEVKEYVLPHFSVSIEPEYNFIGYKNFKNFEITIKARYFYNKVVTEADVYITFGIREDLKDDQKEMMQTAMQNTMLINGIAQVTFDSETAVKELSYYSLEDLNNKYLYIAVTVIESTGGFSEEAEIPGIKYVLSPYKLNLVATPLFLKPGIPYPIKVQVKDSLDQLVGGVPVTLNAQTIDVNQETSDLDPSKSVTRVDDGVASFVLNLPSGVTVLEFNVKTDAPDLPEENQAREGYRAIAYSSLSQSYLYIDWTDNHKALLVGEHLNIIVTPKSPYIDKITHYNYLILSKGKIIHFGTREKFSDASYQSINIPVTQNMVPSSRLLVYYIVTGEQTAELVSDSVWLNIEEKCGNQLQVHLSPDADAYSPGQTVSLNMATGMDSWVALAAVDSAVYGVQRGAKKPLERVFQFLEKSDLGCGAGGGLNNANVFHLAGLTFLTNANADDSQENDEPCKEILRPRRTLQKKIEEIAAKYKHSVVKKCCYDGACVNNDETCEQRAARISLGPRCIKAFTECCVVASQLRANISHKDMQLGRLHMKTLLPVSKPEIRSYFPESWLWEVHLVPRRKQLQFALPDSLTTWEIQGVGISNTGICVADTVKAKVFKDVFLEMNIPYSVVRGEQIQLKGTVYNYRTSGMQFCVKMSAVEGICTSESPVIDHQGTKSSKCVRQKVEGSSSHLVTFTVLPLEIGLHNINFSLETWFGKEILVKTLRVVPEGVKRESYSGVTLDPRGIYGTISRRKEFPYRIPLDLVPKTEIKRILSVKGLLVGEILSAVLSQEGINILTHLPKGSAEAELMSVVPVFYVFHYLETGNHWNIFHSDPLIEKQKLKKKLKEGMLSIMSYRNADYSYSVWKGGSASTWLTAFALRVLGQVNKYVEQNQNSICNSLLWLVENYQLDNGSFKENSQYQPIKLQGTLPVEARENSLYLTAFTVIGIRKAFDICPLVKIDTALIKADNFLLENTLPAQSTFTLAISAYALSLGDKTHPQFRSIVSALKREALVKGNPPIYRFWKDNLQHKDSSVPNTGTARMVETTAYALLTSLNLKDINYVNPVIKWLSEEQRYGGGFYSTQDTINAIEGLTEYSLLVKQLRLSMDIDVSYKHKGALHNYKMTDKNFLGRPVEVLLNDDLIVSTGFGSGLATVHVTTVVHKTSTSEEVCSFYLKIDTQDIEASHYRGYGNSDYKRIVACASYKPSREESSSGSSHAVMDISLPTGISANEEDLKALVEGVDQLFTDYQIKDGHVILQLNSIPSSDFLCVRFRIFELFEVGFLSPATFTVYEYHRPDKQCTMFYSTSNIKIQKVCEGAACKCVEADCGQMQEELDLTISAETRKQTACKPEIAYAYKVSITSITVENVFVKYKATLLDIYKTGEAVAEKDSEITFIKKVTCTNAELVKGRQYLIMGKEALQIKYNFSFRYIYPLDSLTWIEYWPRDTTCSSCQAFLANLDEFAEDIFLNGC

IC50(ug/ml), 补体依赖性溶血实验 [1]: 8.73 µg/mL | EC50(ug/ml), 补体依赖性细胞毒性(CDC)阻断分析 [2]: 2.63 µg/mL
B1: Ref1 (对照抗体依库珠单抗可变区，hIgG1/hIgG-Kappa) (antibody, V domains shown)
VH: QVQLVQSGAEVKKPGASVKVSCKASGYIFSNYWIQWVRQAPGQGLEWMGEILPGSGSTEYTENFKDRVTMTRDTSTSTVYMELSSLRSEDTAVYYCARYFFGSSPNWYFDVWGQGTLVTVSS
VL: DIQMTQSPSSLSASVGDRVTITCGASENIYGALNWYQQKPGKAPKLLIYGATNLADGVPSRFSGSGSGTDFTLTISSLQPEDFATYYCQNVLNTPLTFGQGTKVEIKR
